# Measured values as given in doi:10.1101/2023.11.15.567215 (bioRxiv, 2023).
# Target: the molecule itself
# Assay: cross-linking
protein,measurement,value
"Mtb LexA (LexA of Mycobacterium tuberculosis), wild type (natural protein) MNDSNDTSVAGGAAGADSRVLSADSALTERQRTILDVIRASVTSRGYPPSIREIGDAVGLTSTSSVAHQLRTLERKGYLRRDPNRPRAVNVRGADDAALPPVTEVAGSDALPEPTFVPVLGRIAAGGPILAEEAVEDVFPLPRELVGEGTLFLLKVIGDSMVEAAICDGDWVVVRQQNVADNGDIVAAMIDGEATVKTFKRAGGQVWLMPHNPAFDPIPGNDATVLGKVVTVIRKV",stoichiometry N,2
